In assay [1] the target is T1, syndapin I (native, from rat brain lysate or synaptosomes) (rat, UniProt Q9Z0W5 1-441).
T1 construct: also called PACSIN I; 52 kDa band
Nature of the assay: GST pull-down from rat brain lysate.

Assay [2] deals with T2, endophilin I (native, from rat brain lysate or synaptosomes) (rat, UniProt O35179 1-352).
T2 construct: mature
Nature of the assay: peptide competition in GST-DynI-PRD pull-down from rat brain lysate, Western blot. As for the experimental part:
Total rat brain extract was prepared by homogenising brain tissue in ice-cold lysis buffer (1% Triton X-100, 150 mM NaCl, 25 mM Tris pH 7.4, 1 mM EDTA, 1 mM EGTA, 20 μg/ml leupeptin, 1 mM phenylmethylsulfonyl fluoride and EDTA-free Complete protease inhibitor (Roche)). The homogenate was centrifuged twice at 75,600 g for 30 min at 4° C. The supernatant was pre-cleared by addition of GSH-sepharose beads for 1 h, pelleted at 50 g for 5 min at 4° C., and the supernatant collected. GST-DynI-PRD recombinant proteins were then incubated with an equal amount of tissue lysate at 4° C. for 1 h. Beads were washed extensively with ice-cold 20 mM Tris pH 7.4 containing 1 mM EGTA, eluted in 2×SDS-PAGE sample buffer, resolved on 7.5-15% gradient SDS gels and stained with colloidal Coomassie Blue. Identification of proteins was by matrix-assisted laser desorption ionization time-of-flight mass spectrometry (MALDI-TOF MS). Some peptides were sequenced by tandem MS/MS.
A common characteristic of most binding sites for SH3 domains is the presence of the core amino acid motif PxxP, which is often followed or preceded by a basic Arg residue. There are 13 such motifs in the dynamin I PRD (numbered from site 1 at the N-terminus of the PRD at Pro-753 in dynamin I). […]

T1 sequence (Q9Z0W5 whole entry): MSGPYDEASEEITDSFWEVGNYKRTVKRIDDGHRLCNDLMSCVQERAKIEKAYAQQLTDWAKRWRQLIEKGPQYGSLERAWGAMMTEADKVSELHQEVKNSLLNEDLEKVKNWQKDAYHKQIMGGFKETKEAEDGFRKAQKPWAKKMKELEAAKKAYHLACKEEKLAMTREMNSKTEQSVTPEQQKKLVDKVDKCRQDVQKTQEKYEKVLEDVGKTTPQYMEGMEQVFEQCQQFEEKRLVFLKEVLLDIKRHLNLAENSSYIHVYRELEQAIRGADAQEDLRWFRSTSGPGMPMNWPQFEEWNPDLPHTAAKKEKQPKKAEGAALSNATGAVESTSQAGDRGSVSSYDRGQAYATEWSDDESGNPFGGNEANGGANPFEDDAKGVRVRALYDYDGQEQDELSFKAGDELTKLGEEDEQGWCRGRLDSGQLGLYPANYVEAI
T2 sequence (O35179 whole entry): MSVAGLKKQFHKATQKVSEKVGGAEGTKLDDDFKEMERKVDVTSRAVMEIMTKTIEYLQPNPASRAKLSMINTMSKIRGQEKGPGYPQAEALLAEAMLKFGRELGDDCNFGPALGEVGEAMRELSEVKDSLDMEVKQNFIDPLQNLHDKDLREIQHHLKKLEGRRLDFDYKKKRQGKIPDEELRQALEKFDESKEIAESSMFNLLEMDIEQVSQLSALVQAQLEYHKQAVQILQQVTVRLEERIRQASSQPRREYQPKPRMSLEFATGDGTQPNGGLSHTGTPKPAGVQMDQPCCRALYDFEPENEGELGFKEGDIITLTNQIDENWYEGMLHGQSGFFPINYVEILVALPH

B1: GST-DynI-2D (other, rat, UniProt P21575 746-864, looked up)
chain: NTTTVSTPMPPPVDDSWLQVQSVPAGRRSPTSSPTPQEEAPAVPPARPGSRGPAPGPPPAGSALGGAPPVPSRPGASPDPFGPPPQVPSRPNRAPPGVPSRSGQASPSRPESPRPPFDL
notes: range 746-864; not shown: glutathione S-transferase tag from vector pGEX4T-1
In the case of B1, the binding result in assay [1] is on record as “no binding”.

B2: GST-DynI-2E (other, rat, UniProt P21575 746-864, looked up)
chain: NTTTVSTPMPPPVDDSWLQVQSVPAGRRSPTSSPTPQAAAPAVPPARPGSRGPAPGPPPAGSALGGAPPVPSRPGASPDPFGPPPQVPSRPNRAPPGVPSRSGQASPSRPESPRPPFDL
notes: as for B1
Regarding B2, in assay [1], the binding result was “no binding”.

B3: DynI783-796 peptide (peptide)
peptide: RRAPAVPPARPGSR
notes: Synthetic peptide of the site 2 and site 3 region of dynamin I
As to B3, the “fold weaker inhibitory effect than on syndapin I binding” value in assay [2] stood at 5 fold.

Values taken from patent publication US20080306007A1 (NEWCASTLE INNOVATION, published 2008).
